Measured values reported in patent publication US20190322748A1 (Hoffmann-La Roche, published 2019).

Assays:
[1] = biological target: T1, full-length human Tim3 on cells (CHO-K1 stably transfected with plasmid 15312_hTIM3-fl_pUC_Neo) (human, UniProt Q8TDQ0 22-301); experiment: cell-based or functional assay
[2] = biological target: T1, full-length human Tim3 on cells (CHO-K1 …); experiment: cellular ELISA on CHO-TIM3 (values in relation to the samples max value)
Procedure: (§1) Then the reaction was stopped by addition of 25 μl/well 1N HCL-solution.

Tim3-ECD-His-Biotin [3] = biological target: T2, Tim3-ECD-His-Biotin (human, UniProt Q8TDQ0 22-202, biotinylated with BirA Ligase, site not stated); experiment: ELISA on human Tim3
T2 construct: also called human Tim3 (ELISA); Biochem Human

Tim3-ECD-His-Biotin [4] = biological target: T2, Tim3-ECD-His-Biotin; experiment: ELISA on human Tim3 (values in relation to the samples max value)
Procedure: After washing (3×90 μl/well with PBST-buffer) 25 μl aTim3 samples or diluted (1:2 steps) reference antibody aTim3 F38-2E2 (Biolegend) was added and incubated 1 h at RT. After washing (3×90 μl/well with PBST-buffer) 25 μl/well sheep-anti-mouse-POD (GE NA9310V) was added in 1:9000 dilution and incubated at RT for 1 h while shaking at 400 rpm rotation. After washing (4×90 μl/well with PBST-buffer) 25 μl/well TMB substrate (Calbiochem, #CL07) was added and incubated until OD 1.5-2.5. Then the reaction was stopped by addition of 25 μl/well 1N HCL-solution.

[5] = biological target: T1, full-length human Tim3 on cells (CHO-K1 …); experiment: cellular ELISA on CHO-TIM3
Procedure: as §1

[6] = biological target: T3, biotinylated cynoPD1-ECD-Biotin (cynomolgus); experiment: ELISA on coated cynoPD1-ECD-Biotin
T3 construct: extracellular domain; also called cyPD1
Procedure: After washing (3×90 μl/well with PBST-buffer) 25 μl anti PD1 samples or reference antibodies (human anti PD1; Roche) were added and incubated 1 h at RT on shaker. After washing (3×90 μl/well with PBST-buffer) 25 μl/well goat-anti-human H+L-POD (JIR, JIR109-036-088) was added in 1:1000 dilution and incubated at RT for 1 h on shaker.

[7] = biological target: T4, biotinylated PD1-ECD-AviHis (human, UniProt Q15116 25-170, biotinylated, site not stated); experiment: ELISA on coated biotinylated PD1-ECD-AviHis
T4 construct: also called huPD1; hu PD1

[8] = biological target: T4, biotinylated PD1-ECD-AviHis; experiment: ELISA, inhibition of PD-L2 Fc binding to coated PD1-ECD-AviHis
Procedure: After washing (3×90 μl/well with PBST-buffer) 25 μl anti PD1 samples or reference antibodies (mouse anti huPD1; Roche) were added and incubated 1 h at RT on shaker.

[9] = biological target: T4, biotinylated PD1-ECD-AviHis; experiment: ELISA, inhibition of PD-L1 Fc binding to coated PD1-ECD-AviHis
[10] = biological target: T4, biotinylated PD1-ECD-AviHis; experiment: ELISA on coated biotinylated PD1-ECD-AviHis; remark: listed apart in the source
Procedure: After washing (3×90 μl/well with PBST-buffer) 25 μl anti PD1 antibody samples were added in increasing concentrations and incubated 1 h at RT. After washing (3×90 μl/well with PBST-buffer) 25 μl/well goat-anti-human H+L-POD (JIR, JIR109-036-098) was added in 1:5000 dilution and incubated at RT for 1 h on a shaker.

B1: Tim3_0038 (antibody, V domains shown)
VH: EVQLQQSGAEPLKPGASVKLTCTTSGFNIKDYYIHWVKQRSDQGLEWIGRIDPEDGELIYAPKFQDKATITVDTSSNIAYLQLNSLTSEDTAVYYCSRDHGYVGWFAYWGQGTLVTVSA
VL: NVVMTQSPKSMIMSVGQRVTLNCKASENVDTYVSWYQQKPEQSPKLLIYGASNRYTGVPDRFTGSRSATDFTLTISSVQAEDLAVYYCGQSYSYPWTFGGGTKLEFR
IFN-gamma release in MLR at 1 µg/ml antibody, % of rec hu IL-2 (20 EU/ml) = 100% [1]: 1%
IFN-gamma release in MLR at 10 µg/ml antibody, % of rec hu IL-2 (20 EU/ml) = 100% [1]: 38%
IFN-gamma release in MLR at 40 µg/ml antibody, % of rec hu IL-2 (20 EU/ml) = 100% [1]: 51%

B2: Tim3_0016 (antibody, V domains shown)
VH: QVTLKESGPGILQPSQTLRLTCSFSGFSLSTSGMSVGWIRQPSGKGLEWLAHIWLNDDVFFNPALKSRLTISKDTSNNQVFLQIASVVTADTATYYCVRANGYLYALDYWGQGTSVTVSS
VL: QIVLTQSPAIMSASPGQKVTITCSASSSVNYTQWYQQKLGSSPKLWIYDAFKLAPGVPARFSGSGTGTSYSLTISSMEAEDAASYFCHQWSSYPWTFGGGTKLEIK
IFN-gamma release in MLR at 1 µg/ml antibody, % of rec hu IL-2 (20 EU/ml) = 100% [1]: 7%
IFN-gamma release in MLR at 10 µg/ml antibody, % of rec hu IL-2 (20 EU/ml) = 100% [1]: 22%

B3: Tim3_0016MutNQ (antibody, V domains shown)
VH: QVTLKESGPGILQPSQTLRLTCSFSGFSLSTSGMSVGWIRQPSGKGLEWLAHIWLNDDVFFNPALKSRLTISKDTSNNQVFLQIASVVTADTATYYCVRANGYLYALDYWGQGTSVTVSS
VL: QIVLTQSPAIMSASPGQKVTITCSASSSVQYTQWYQQKLGSSPKLWIYDAFKLAPGVPARFSGSGTGTSYSLTISSMEAEDAASYFCHQWSSYPWTFGGGTKLEIK
EC50 [2]: 0.0063 µg/mL
Inflexion point (Tim3-ECD-His-Biotin [3]): 5.7 ng/mL
EC50 (Tim3-ECD-His-Biotin [4]): 0.0076 µg/mL
Inflexion point [5]: 5.4 ng/mL

B4: PD1-0050 (antibody, V domains shown)
VH: DVQLQESGPGLVKPSQSLSLTCTVTGYSITSDYAWNWIRQFPGNKLEWMGYITYTGRTSYNPSLKSRISITRDTSKNQFFLQLNSVTTEDTATYYCAREMDYYGSTLDYWGQGTTLTVSS
VL: KIVLTQSPASLAVSLRQRATISCRASESVDRYGNSFIHWYQQKPGQPPKVLIYRASNLESGFPARFSGSGSRTDFTLTIDPVEADDAATYYCQQNNEDPYTFGSGTKLEIK
EC50 [6]: 0.0098 µg/mL
EC50 [7]: 0.0179 µg/mL
IC50 [8]: 0.034 µg/mL
IC50 [9]: 0.128 µg/mL

B5: PD1-0069 (antibody, V domains shown)
VH: QVQLQQSGPELVRPGVSVKISCKGSGYTFTDYAMHWVKQSHARTLEWIGVISTYSGDTNYNQKFKDKATMTVDKSSSTAYLELARMTSEDSAIYYCARLGITTGFAYWGQGTLVTVSA
VL: DIVLTQSPASLAVSLGQRATISCRASKGVSTSSYSFMHWYQQKPRQPPKLLIKYASYLESGVPARFSGSGSGTDFTLNIHPVEEEDAATYYCHHSREFPWTFGGGTKLEIK
EC50 [6]: 0.0227 µg/mL
EC50 [7]: 0.0457 µg/mL
IC50 [8]: 0.089 µg/mL
IC50 [9]: 0.225 µg/mL

B6: PD1-0073 (antibody, V domains shown)
VH: EVKLVESGGGLVKPGGSLKLSCAASGFTFSNYGMSWIRQTPEKGLEWVATISGGGRDTYYPDSVKGRFTISRDNVKNNLYLQMSSLRSEDTAFYYCASYYYGIDYWGQGTSVTVSS
VL: DIVMTQPHKFMSTSVGDRVRITCKASQDVTTAVAWYQQKPGQSPKLLIYWASTRHTGVPDRFTGSGSGTEFTLTISSVQAEDLALYYCQQHYSIPWTFGGGTKLEIK
EC50 [6]: 0.0083 µg/mL
EC50 [7]: 0.0151 µg/mL
IC50 [8]: 0.065 µg/mL
IC50 [9]: 0.124 µg/mL

B7: PD1-0078 (antibody, V domains shown)
VH: QVQLQQPGAELVKPGASVKMSCKASGYTFTSTWMHWVKQRPGQGLEWIGAIDPSDSYTTYNQKFKGKATLTVDTSSTTAYMQLSSLTSEDSAVYYCTRSPFDYWGQGTTLTVSS
VL: DIVMTQSHKFMSTSVGDRVSITCKASQDVSTAVAWYQQKPGQSPKLLIYSASYRYTGVPDRFTGSGSGTDFTFAISSVQAEDLAVYYCQQHYSHPFTFGSGTKLEIK
EC50 [6]: 0.0224 µg/mL
EC50 [7]: 0.0263 µg/mL
IC50 [8]: 0.086 µg/mL

B8: PD1-0098 (antibody, V domains shown)
VH: DVQLQESGPGLVKPSQSLSLTCTVTGYSITSDYAWNWIRQFPGDKLEWLGYITYSGFTNYNPSLKSRISISRDTSKNQFFLQLNSVATEDTATYYCARWHGSAPWYFDYWGRGTTLTVSS
VL: DVLMTQTPLSLPVSLGDQASISCRSSQNIVHSDGNTYLEWYLQKPGQSPNLLIYKVSRRFSGVPDRFSGSGSGTDFTLKISRVEAEDLGVYYCFQGSHFPLTFGAGTKLELK
EC50 [6]: 0.0546 µg/mL
EC50 [7]: 0.0508 µg/mL
IC50 [8]: 0.045 µg/mL
IC50 [9]: 0.174 µg/mL

B9: PD1-0102 (antibody, V domains shown)
VH: DVQLQESGPDLVKPSQSLSLTCTVTGYSITSGYSWHWIRQFPGNKLEWMGFIHSSGDTNYNPSLKSRISFTRDTSKNQFFLQLSSLTDEDTATYYCATYRNWYFDVWGAGTTVTVSS
VL: DIVMTQSPSSLTVTAGEKVTMRCKSSQSLLNSGTQKNYLTWYQQKPGQPPKLLIYWASTRESGVPNRFTGSGSGTDFTLTISSVQAEDLSVYYCQSDYTFPLTFGGGTKLELK
EC50 [6]: 0.0527 µg/mL
EC50 [7]: 0.0342 µg/mL
IC50 [8]: 0.14 µg/mL
IC50 [9]: > 35.5 µg/mL

B10: PD1-0103 (antibody, V domains shown)
VH: EVILVESGGGLVKPGGSLKLSCAASGFSFSSYTMSWVRQTPEKRLDWVATISGGGRDIYYPDSVKGRFTISRDNAKNTLYLEMSSLMSEDTALYYCVLLTGRVYFALDSWGQGTSVTVSS
VL: KIVLTQSPASLPVSLGQRATISCRASESVDTSDNSFIHWYQQRPGQSPKLLIYRSSTLESGVPARFSGSGSRTDFTLTIDPVEADDVATYYCQQNYDVPWTFGGGTKLEIK
notes: Mouse monoclonal antibody
EC50 [6]: 0.0369 µg/mL
EC50 [7]: 0.0337 µg/mL
IC50 [8]: 0.051 µg/mL
IC50 [9]: 0.182 µg/mL

B11: Tim3_0018MutNQ (antibody, V domains shown)
VH: QVTLKESGPGILQPSQTLSLTCSFSGFSLSTSGMSVGWIRQPSGKGLEWLAHIWLNDDVFFNPALKRRLTISKDTSNNQVFLQIASVVTADTATYYCVRANGYLYALDYWGQGISVTVSS
VL: QIVLTQSPAIMSASPGQKVTITCSASSSVQYTQWYQQKLGSSPKLWIYDAFKLAPGVPARFSGSGTGTSYSLTISSMEAEDAASYFCHQWSSYPWTFGGGTKLEIK
EC50 [2]: 0.0134 µg/mL
Inflexion point (Tim3-ECD-His-Biotin [3]): 10.8 ng/mL
EC50 (Tim3-ECD-His-Biotin [4]): 0.012 µg/mL
Inflexion point [5]: 12.8 ng/mL

B12: Tim3_0016MutNS (antibody, V domains shown)
VH: QVTLKESGPGILQPSQTLRLTCSFSGFSLSTSGMSVGWIRQPSGKGLEWLAHIWLNDDVFFNPALKSRLTISKDTSNNQVFLQIASVVTADTATYYCVRANGYLYALDYWGQGTSVTVSS
VL: QIVLTQSPAIMSASPGQKVTITCSASSSVSYTQWYQQKLGSSPKLWIYDAFKLAPGVPARFSGSGTGTSYSLTISSMEAEDAASYFCHQWSSYPWTFGGGTKLEIK
EC50 [2]: 0.0091 µg/mL
Inflexion point (Tim3-ECD-His-Biotin [3]): 5.5 ng/mL
EC50 (Tim3-ECD-His-Biotin [4]): 0.0085 µg/mL
Inflexion point [5]: 8.5 ng/mL

B13: Chimeric TIM3-0028 (antibody, human IgG1, V domains shown)
VH: EVQLQQSVAELVRPGASVKLSCTASGFNIKTTYMHWVKQRPEQGLEWIGRIDPADDNTKYAPKFQGKATITADTSSNTAYLQLSSLTSEDAAIYYCVRDFGYVAWFAYWGQGTLVTFSA
VL: NIVMTPTPKFLPVSSGDRVTMTCRASQSVDNYVAWYQQKPGQSPKLLIYYASNRYIGVPDRFTGSGSGTDFTFTISSVQVEDLAVYFCQQHYSSPYTFGSGTKLEIK
notes: also called aTIM3-chi28
binding result [10]: no binding
